In IntAct's records for PubMed 29892012:

B1: Coiled-coil alpha-helical rod protein 1 (Homo sapiens), Q8TD31 (parent)
chain: MFPPSGSTGLIPPSHFQARPLSTLPRMAPTWLSDIPLVQPPGHQDVSERRLDTQRPQVTMWERDVSSDRQEPGRRGRSWGLEGSQALSQQAEVIVRQLQELRRLEEEVRLLRETSLQQKMRLEAQAMELEALARAEKAGRAEAEGLRAALAGAEVVRKNLEEGSQRELEEVQRLHQEQLSSLTQAHEEALSSLTSKAEGLEKSLSSLETRRAGEAKELAEAQREAELLRKQLSKTQEDLEAQVTLVENLRKYVGEQVPSEVHSQTWELERQKLLETMQHLQEDRDSLHATAELLQVRVQSLTHILALQEEELTRKVQPSDSLEPEFTRKCQSLLNRWREKVFALMVQLKAQELEHSDSVKQLKGQVASLQEKVTSQSQEQAILQRSLQDKAAEVEVERMGAKGLQLELSRAQEARRRWQQQTASAEEQLRLVVNAVSSSQIWLETTMAKVEGAAAQLPSLNNRLSYAVRKVHTIRGLIARKLALAQLRQESCPLPPPVTDVSLELQQLREERNRLDAELQLSARLIQQEVGRAREQGEAERQQLSKVAQQLEQELQQTQESLASLGLQLEVARQGQQESTEEAASLRQELTQQQELYGQALQEKVAEVETRLREQLSDTERRLNEARREHAKAVVSLRQIQRRAAQEKERSQELRRLQEEARKEEGQRLARRLQELERDKNLMLATLQQEGLLSRYKQQRLLTVLPSLLDKKKSVVSSPRPPECSASAPVAAAVPTRESIKGSLSVLLDDLQDLSEAISKEEAVCQGDNLDRCSSSNPQMSS

Variants of: B1
Details: with nutm1_human NUTM1, Q86Y26
With W337R the “effect of a mutation on the interaction” value was “disrupting interaction strength”.

Variants of: B1
Details: with tekt1_human TEKT1, Q969V4
Chain of tekt1_human TEKT1, Q969V4 (Q969V4 whole entry): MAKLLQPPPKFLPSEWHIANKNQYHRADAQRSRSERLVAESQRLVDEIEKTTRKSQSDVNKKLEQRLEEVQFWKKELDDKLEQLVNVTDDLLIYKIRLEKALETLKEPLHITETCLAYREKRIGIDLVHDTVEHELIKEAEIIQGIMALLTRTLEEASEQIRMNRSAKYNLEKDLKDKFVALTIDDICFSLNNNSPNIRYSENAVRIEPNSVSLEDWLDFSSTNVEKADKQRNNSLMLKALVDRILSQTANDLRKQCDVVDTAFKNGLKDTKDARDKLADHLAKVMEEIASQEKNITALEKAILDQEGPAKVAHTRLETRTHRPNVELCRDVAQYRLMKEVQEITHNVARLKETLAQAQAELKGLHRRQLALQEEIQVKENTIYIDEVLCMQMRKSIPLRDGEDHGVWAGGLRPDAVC
For W337R, the “effect of a mutation on the interaction” value was “disrupting interaction strength”.

Variants of: B1
Details: with amol2_human AMOTL2, Q9Y2J4
Chain of amol2_human AMOTL2, Q9Y2J4 (Q9Y2J4 whole entry): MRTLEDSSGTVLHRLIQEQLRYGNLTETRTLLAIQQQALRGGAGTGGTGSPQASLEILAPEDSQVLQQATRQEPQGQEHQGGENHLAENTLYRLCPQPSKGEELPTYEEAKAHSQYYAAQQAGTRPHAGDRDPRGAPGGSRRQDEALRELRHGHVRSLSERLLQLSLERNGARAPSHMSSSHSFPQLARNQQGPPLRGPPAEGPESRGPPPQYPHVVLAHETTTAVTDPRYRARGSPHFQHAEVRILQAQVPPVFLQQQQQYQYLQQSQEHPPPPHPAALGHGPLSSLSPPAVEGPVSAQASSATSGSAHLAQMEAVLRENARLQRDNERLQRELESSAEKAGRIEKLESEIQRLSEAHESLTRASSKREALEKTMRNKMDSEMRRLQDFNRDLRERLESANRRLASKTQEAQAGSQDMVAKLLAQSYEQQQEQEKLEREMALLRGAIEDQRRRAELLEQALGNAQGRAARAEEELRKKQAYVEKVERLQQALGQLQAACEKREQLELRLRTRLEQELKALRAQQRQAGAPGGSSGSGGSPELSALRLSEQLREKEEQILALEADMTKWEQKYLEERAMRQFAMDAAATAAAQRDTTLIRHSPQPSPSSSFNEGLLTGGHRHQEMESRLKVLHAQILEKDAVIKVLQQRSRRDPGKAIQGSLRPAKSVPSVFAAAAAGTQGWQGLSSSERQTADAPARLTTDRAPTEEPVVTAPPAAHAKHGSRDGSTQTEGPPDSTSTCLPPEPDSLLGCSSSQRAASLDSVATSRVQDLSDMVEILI
With W337R the “effect of a mutation on the interaction” value was “disrupting interaction strength”.

Variants of: B1
Details: with k1h1_human KRT31, Q15323
W337R was tested, and the “effect of a mutation on the interaction” value was “with no effect”.

Variants of: B1
Details: with abi2_human ABI2, Q9NYB9
Chain of abi2_human ABI2, Q9NYB9 (Q9NYB9 whole entry): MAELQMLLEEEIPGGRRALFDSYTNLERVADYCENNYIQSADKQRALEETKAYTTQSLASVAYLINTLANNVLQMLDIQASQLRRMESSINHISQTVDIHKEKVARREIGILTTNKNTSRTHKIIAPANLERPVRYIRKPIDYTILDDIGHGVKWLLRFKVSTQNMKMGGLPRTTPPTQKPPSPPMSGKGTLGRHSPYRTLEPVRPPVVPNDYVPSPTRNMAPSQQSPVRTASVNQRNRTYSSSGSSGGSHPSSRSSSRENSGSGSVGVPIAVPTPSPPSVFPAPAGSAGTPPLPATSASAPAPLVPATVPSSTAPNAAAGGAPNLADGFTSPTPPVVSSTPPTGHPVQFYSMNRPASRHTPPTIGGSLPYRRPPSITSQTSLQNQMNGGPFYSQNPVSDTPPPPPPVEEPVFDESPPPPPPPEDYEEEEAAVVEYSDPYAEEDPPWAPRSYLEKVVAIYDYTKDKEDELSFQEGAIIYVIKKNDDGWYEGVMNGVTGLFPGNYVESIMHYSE
With W337R the “effect of a mutation on the interaction” value was “disrupting interaction strength”.

Variants of: B1
Details: with txlnb_human TXLNB
W337R was tested, and the “effect of a mutation on the interaction” value was “disrupting interaction strength”.

Variants of: B1
Details: with ndc80_human NDC80, O14777
For W337R, the “effect of a mutation on the interaction” value was “disrupting interaction strength”.

Variants of: B1
Details: with tpm3_human TPM3, P06753
Chain of tpm3_human TPM3, P06753 (P06753 whole entry): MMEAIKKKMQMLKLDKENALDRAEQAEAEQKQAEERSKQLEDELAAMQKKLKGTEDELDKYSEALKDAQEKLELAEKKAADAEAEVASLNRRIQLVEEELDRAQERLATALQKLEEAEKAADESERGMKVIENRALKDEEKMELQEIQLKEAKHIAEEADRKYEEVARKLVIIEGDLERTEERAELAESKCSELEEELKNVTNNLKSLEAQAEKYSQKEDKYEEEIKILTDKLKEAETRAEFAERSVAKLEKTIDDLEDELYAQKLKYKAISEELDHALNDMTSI
In the case of W337R, the “effect of a mutation on the interaction” value is reported as “disrupting interaction strength”.

Variants of: B1
Details: with KRT15, P19012
Chain of KRT15, P19012 (P19012 whole entry): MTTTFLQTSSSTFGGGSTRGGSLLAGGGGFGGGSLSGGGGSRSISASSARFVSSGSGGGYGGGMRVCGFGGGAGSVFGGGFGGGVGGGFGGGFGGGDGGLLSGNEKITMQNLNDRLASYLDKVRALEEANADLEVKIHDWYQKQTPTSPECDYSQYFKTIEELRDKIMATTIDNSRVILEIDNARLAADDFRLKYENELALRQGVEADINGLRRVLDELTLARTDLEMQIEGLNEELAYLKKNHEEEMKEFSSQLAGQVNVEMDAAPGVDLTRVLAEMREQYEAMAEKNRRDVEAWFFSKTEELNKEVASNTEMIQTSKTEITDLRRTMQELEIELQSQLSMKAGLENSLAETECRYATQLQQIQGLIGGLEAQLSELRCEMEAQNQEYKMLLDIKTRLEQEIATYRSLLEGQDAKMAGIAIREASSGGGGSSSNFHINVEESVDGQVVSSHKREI
For W337R, the “effect of a mutation on the interaction” value was “with no effect”.

Variants of: B1
Details: with atg5_human ATG5, Q9H1Y0
Chain of atg5_human ATG5, Q9H1Y0 (Q9H1Y0 whole entry): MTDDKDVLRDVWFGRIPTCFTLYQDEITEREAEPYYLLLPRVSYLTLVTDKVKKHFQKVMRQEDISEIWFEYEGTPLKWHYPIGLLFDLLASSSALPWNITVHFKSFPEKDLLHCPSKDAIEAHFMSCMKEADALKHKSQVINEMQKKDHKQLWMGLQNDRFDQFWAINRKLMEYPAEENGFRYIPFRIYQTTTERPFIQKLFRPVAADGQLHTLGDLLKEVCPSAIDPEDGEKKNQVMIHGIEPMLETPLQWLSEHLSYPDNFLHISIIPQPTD
With W337R the “effect of a mutation on the interaction” value was “disrupting interaction strength”.

Variants of: B1
Details: with cc136_human CCDC136, Q96JN2
Chain of cc136_human CCDC136, Q96JN2 (Q96JN2 whole entry): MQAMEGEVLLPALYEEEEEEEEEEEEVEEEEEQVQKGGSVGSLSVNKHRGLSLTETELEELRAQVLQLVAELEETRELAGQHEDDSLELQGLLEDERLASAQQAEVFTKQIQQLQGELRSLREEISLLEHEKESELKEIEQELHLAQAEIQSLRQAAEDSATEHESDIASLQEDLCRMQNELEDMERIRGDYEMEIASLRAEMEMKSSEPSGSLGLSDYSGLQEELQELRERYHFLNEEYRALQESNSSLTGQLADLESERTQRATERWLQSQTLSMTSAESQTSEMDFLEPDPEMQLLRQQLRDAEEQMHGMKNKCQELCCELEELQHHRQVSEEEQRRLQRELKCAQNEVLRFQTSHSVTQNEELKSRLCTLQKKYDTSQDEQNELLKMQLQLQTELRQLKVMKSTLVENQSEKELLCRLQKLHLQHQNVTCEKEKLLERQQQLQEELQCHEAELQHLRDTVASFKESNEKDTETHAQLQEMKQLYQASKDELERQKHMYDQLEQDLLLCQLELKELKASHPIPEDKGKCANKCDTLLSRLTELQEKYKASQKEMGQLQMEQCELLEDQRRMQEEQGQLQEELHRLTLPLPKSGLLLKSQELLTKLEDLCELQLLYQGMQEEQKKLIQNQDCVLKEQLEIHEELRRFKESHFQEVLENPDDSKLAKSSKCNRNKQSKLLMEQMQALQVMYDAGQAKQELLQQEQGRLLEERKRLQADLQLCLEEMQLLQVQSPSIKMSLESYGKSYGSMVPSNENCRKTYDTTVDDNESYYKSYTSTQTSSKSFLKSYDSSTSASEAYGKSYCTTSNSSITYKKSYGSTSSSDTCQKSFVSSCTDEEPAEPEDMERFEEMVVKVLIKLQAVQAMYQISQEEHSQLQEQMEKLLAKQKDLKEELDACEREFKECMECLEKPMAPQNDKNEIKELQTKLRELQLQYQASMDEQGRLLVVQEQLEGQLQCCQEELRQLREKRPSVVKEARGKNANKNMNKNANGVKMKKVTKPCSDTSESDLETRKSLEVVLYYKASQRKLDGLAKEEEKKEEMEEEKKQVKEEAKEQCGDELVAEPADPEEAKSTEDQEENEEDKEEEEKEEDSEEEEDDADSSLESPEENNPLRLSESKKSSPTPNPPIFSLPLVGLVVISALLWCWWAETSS
In the case of W337R, the “effect of a mutation on the interaction” value is reported as “with no effect”.

Variants of: B1
Details: with nup62_human NUP62, P37198
For W337R, the “effect of a mutation on the interaction” value was “with no effect”.

Variants of: B1
Details: with tsg10_human TSGA10, Q9BZW7
With W337R the “effect of a mutation on the interaction” value was “disrupting interaction strength”.

Variants of: B1
Details: with anchr_human ZFYVE19, Q96K21
Chain of anchr_human ZFYVE19, Q96K21 (Q96K21 whole entry): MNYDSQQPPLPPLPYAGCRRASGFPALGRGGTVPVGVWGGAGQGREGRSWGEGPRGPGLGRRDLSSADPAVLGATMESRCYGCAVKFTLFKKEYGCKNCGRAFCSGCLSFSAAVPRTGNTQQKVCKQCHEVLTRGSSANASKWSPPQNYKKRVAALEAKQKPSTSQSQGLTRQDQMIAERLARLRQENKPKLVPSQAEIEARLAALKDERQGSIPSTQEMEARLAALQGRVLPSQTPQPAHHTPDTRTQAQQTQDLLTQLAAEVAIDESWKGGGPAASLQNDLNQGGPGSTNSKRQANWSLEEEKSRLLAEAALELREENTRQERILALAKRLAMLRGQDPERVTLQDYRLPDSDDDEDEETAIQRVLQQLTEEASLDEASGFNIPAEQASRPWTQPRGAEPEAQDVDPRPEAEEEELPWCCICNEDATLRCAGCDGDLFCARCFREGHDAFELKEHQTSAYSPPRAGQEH
In the case of W337R, the “effect of a mutation on the interaction” value is reported as “disrupting interaction strength”.

Variants of: B1
Details: with sat1_human SAT1, P21673
Chain of sat1_human SAT1, P21673 (P21673 whole entry): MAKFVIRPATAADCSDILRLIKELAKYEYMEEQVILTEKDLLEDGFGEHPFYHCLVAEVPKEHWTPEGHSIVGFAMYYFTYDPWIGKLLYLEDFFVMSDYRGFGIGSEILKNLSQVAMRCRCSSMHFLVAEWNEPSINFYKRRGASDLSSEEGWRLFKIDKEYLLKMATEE
With W337R the “effect of a mutation on the interaction” value was “disrupting interaction strength”.

Variants of: B1
Details: with ndk7_human NME7, Q9Y5B8
Chain of ndk7_human NME7, Q9Y5B8 (Q9Y5B8 whole entry): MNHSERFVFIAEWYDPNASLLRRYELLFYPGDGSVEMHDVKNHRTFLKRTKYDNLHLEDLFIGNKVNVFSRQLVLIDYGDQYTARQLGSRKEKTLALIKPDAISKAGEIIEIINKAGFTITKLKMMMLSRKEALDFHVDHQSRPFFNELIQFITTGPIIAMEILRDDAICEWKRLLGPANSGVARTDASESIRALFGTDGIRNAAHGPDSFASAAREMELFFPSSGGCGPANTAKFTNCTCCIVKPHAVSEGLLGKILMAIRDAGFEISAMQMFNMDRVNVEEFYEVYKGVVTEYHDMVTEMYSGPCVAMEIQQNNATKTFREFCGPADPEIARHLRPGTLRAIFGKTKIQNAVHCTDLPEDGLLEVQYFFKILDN
For W337R, the “effect of a mutation on the interaction” value was “with no effect”.

Variants of: B1
Details: with txlna_human TXLNA
For W337R, the “effect of a mutation on the interaction” value was “disrupting interaction strength”.
